Results on two molecules are retold here after article PMC3901689, “Leptin-Induced Endothelium-Dependent Vasorelaxation of Peripheral Arteries in Lean and Obese Rats: Role of Nitric Oxide and Hydrogen Sulfide” (PLoS ONE, 2014).

Experiment [1] concerns the target T1, human leptin binding domain (hLBD) consisting of the amino acids 428-635 of human leptin receptor (human, UniProt P48357 428-635).
T1 sequence (looked up): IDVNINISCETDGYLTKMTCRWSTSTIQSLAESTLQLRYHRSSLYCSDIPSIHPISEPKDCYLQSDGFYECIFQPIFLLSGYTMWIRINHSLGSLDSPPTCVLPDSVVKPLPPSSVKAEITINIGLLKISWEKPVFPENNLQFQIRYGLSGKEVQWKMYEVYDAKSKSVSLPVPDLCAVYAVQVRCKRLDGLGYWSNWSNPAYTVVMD
Description: competitive non-radioactive receptor-binding assay; hLBD immobilized; biotinylated human leptin bound in the presence of the indicated concentrations of SRLA or PEG-SRLA; triplicates. To be noted: both partners purified.

For experiment [2], the target named is T2, human leptin binding domain (hLBD) consisting of the amino acids 428-635 of human leptin receptor (human, UniProt P48357 428-635).
T2 chain: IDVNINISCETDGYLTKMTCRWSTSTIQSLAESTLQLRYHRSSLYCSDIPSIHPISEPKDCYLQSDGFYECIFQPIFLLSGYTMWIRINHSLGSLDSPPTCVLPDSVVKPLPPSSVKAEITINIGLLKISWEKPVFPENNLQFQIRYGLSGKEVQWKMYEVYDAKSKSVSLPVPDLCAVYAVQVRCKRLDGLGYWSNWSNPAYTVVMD
Description: ELISA; competition with biotinylated human leptin; given as EC50. For orientation: ELISA stands for enzyme-linked immunosorbent assay.

B1: super active rat leptin antagonist (D23L/L39A/D40A/F41A mutant), non-pegylated (ligand)
chain: AVPIHKVQDDTKTLIKTIVTRINLISHTQSVSARQRVTGAAAIPGLHPILSLSKMDQTLAVYQQILTSLPSQNVLQIAHDLENLRDLLHLLAFSKSCSLPQTRGLQKPESLDGVLEASLYSTEVVALSRLQGSLQDILQQLDLSPEC
notes: extra Ala left at the N-terminus from an extra Met-Ala (Met is cleaved by the bacteria); leptin, rat; about 16 kDa by SDS-PAGE; also called SRLA
Broadly, the IC50 is the concentration needed to halve the response being measured. A lower IC50 goes with greater potency. Regarding B1, in experiment [1], the binding result is “binds”. In experiment [2], the IC50 is 0.977 nM.

B2: mono-pegylated super active rat leptin antagonist (D23L/L39A/D40A/F41A mutant) (ligand)
chain: AVPIHKVQDDTKTLIKTIVTRINLISHTQSVSARQRVTGAAAIPGLHPILSLSKMDQTLAVYQQILTSLPSQNVLQIAHDLENLRDLLHLLAFSKSCSLPQTRGLQKPESLDGVLEASLYSTEVVALSRLQGSLQDILQQLDLSPEC
modifications: mono-pegylated (90%, with 10% double pegylated product); site and PEG size not stated
notes: extra Ala left at the N-terminus from an extra Met-Ala (Met is cleaved by the bacteria); leptin, rat; same chain as m1; also called PEG-SRLA; pegylated superactive rat leptin receptor antagonist
Take B2: the binding result in experiment [1] is listed as “binds”. The molecule also showed an IC50 in experiment [2] of 9.31 nM.
